Assay results published in patent US20220372168A1.

Columns and labels:
[1] = target: Human FcγRIIa (R131) (human) (UniProt P12318); assay: SPR (Biacore T200), His-tagged FcγR captured on anti-penta-His chip, kinetic or steady-state fit
[2] = target: Human FcγRIIb (human) (UniProt P31994); assay: as above
[3] = target: Human FcγRIIa (H131) (human) (UniProt P12318); assay: as above
[4] = target: Human FcγRIIIa (F176) (human) (UniProt P08637); assay: SPR (Biacore T200), His-tagged FcγR captured on anti-penta-His chip, antibody injected
Chain of Human FcγRIIIa (F176) (human) (P08637 17-208 limits assumed): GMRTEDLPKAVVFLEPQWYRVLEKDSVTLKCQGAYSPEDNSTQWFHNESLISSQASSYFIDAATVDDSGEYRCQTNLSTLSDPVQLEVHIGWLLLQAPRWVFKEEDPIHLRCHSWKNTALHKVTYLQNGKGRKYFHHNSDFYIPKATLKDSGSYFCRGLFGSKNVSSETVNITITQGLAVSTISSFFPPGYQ

[5] = target: Human FcγRIIIb (human) (UniProt O75015); assay: as above
Chain of Human FcγRIIIb (human) (O75015 17-200 limits assumed): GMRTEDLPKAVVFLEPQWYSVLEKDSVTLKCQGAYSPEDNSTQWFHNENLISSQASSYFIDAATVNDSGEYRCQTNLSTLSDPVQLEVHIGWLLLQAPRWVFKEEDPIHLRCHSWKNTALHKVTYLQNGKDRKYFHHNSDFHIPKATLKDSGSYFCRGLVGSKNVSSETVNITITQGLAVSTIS

[6] = target: Human FcγRIIa (R131) (human) (UniProt P12318); assay: as above
[7] = target: Human FcγRI (human) (UniProt P12314); assay: as above
Chain of Human FcγRI (human) (P12314 16-288 limits assumed): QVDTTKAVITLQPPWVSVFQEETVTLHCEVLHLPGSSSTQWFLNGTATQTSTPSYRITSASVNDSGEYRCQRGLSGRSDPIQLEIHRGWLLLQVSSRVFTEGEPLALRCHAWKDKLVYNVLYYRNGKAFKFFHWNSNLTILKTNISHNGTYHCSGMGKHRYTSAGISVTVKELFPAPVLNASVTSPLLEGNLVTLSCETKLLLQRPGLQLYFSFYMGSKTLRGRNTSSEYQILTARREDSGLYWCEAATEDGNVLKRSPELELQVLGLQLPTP

[8] = target: Human FcγRIIIa (V176) (human) (UniProt P08637); assay: as above
Chain of Human FcγRIIIa (V176) (human) (P08637 17-208 F176V limits assumed): as the sequence (P08637 17-208 limits assumed) above, with F160V counted along it

[9] = target: Human FcγRIIb (human) (UniProt P31994); assay: as above
[10] = target: Human FcγRIIa (H131) (human) (UniProt P12318); assay: as above

Chain of Human FcγRIIa (R131) (human) (P12318 36-218 H167R limits assumed): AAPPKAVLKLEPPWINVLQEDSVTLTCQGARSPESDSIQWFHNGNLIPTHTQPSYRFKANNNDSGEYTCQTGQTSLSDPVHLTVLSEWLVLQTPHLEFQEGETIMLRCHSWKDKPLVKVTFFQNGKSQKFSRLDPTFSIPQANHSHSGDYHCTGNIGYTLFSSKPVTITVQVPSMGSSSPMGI
Chain of Human FcγRIIa (H131) (human) (P12318 36-218 limits assumed): as the sequence (P12318 36-218 H167R limits assumed) above, with R132H counted along it
Chain of Human FcγRIIb (human) (P31994 46-217 limits assumed): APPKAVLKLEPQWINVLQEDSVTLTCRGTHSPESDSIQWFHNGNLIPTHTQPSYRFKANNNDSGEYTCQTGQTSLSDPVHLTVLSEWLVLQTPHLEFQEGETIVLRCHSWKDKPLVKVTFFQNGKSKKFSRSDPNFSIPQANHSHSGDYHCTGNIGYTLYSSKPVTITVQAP

B1: mAb3 (antibody, part only; not given: variable domains, not shown: another chain or arm of the molecule)
Fc: ESKYGPPCPPCPAPPVAGPSVFLFPPKPKDTLMISRTPEVTCVVVDVSQEDPEVQFNWYVDGVEVHNAKTKPREEQFNSTYRVVSVLTVLHQDWLNGKEYKCKVSNKGLPSSIEKTISKAKGQPREPQVYTLPPSQEEMTKNQVSLTCLVKGFYPSDIAVEWESNGQPENNYKTTPPVLDSDGSFFLYSRLTVDKSRWQEGNVFSCSVMHEALHNHYTQKSLSLSLGK
Kd [1]: 1320 nM | Kd [2]: 12300 nM | Kd [3]: 1610 nM | binding signal (RU) [4]: 6 RU | binding signal (RU) [5]: -8 RU | binding signal (RU) [6]: 340 RU | binding signal (RU) [7]: 36 RU | binding signal (RU) [8]: 34 RU | binding signal (RU) [9]: 226 RU | binding signal (RU) [10]: 419 RU
